Consider one molecule from patent US7718626B2, “ErbB3 binding protein compositions and methods of use” (University of Maryland, Baltimore, priority 2005, dated 2010).

The test system of test [1] is AR and POV-1 protein in LNCaP cells. Briefly: Western blot analysis of LNCaP ebp1 transfectants. The format is cell-based, human. The method, then:
Western Blot Analysis: Briefly, total cell extracts were prepared by direct lysis of cells with buffer containing 50 mM Tris-HCl (pH 7.4), 1 mM EDTA, 250 mM NaCl, 1% Triton X-100, 0.5 mM dithiothreitol (DTT) and 1 mM phenylmethylsulfonyl (PMSF). Protein concentrations were measured using a detergent compatible kit (BioRad, Hercules, Calif.). Proteins were resolved by SDS-PAGE and analyzed by Western blotting as described (Xia et al., 2001, Analysis of the Expression Pattern of Ebp1, an ErbB-3-Binding Protein, Biochem. Biophys. Res. Commun., 289:240-244). The AR antibody was from Santa Cruz Biotechnology (Santa Cruz, Calif.), the Ebp1 antibody from Upstate (Lake Placid, N.Y.), the polyclonal antibody to actin from Sigma (St. Louis, Mo.), and the POV-1 antibody was a gift of Dr. Rodrigo Chugai, National Cancer Institute. The results of the microarray analysis were validated using real-time quantitative reverse-transcription PCR, Western blot, and ELISA methods. […] The expression of POV-1 mRNA and protein were each decreased about two-fold. PSA secretion in the conditioned media of ebp1 and vector control cells was assessed by ELISA. […] Finally, […]-2 mRNA expression was decreased approximately 40%.
(In general: In western blotting, separated proteins are transferred to a membrane and probed.)

The subject of the next test is LNCaP cells. Briefly: Growth in steroid-reduced medium with DHT and/or bicalutamide. As to conditions: ebp1 transfectants (vector controls approximately 70%). The format is cell-based, human. As for the experimental part:
Cell Growth Assays: To measure growth in complete media, cells (2×10^4) were seeded in triplicate in individual wells of 12-well tissue culture plates in RPMI-1640 with 10% FBS and cultured for the indicated number of days. Cells were trypsinized, stained with Trypan Blue (0.4%), and counted in a hemacytometer. […] Colonies were counted after 10 days of incubation. For studies assessing the effect of dihydrotestosterone (DHT) on cell growth, cells (2×10^4) were plated in 12-well plates in complete media. After a 24-hour attachment period, the medium was replaced with steroid-free medium [phenol red-free RPMI 1640 and 5% charcoal-stripped FBS (Sigma)] for 48 hours. The final concentration of testosterone in the steroid-reduced media was less than 5 pM. After 48 hours of steroid depletion, cells were re-fed with fresh steroid-reduced medium with or without the indicated concentrations of DHT and/or bicalutamide (10 μM), and total cell numbers were assessed 7 days later.

Test [2] deals with secreted PSA of LNCaP cells. Briefly: PSA secretion in conditioned media by ELISA. As to conditions: ebp1 transfectants vs controls. The test is classed as cell-based, human. The method, then: Measurement of PSA levels: Serum PSA levels were determined using a PSA ELISA kit from DSL, Inc (Webster, Tex.). […] Following a 1 h incubation and extensive washing of the plate, the wells were treated for 30 min with a second anti-PSA antibody labeled with horseradish peroxidase. After washing, the wells were treated with a tetramethylbendizine substrate for 10 min, and absorbance was read at 450 nm. The results of the microarray analysis were validated using real-time quantitative reverse-transcription PCR, Western blot, and ELISA methods. […] The expression of POV-1 mRNA and protein were each decreased about two-fold. PSA secretion in the conditioned media of ebp1 and vector control cells was assessed by ELISA. […] Finally, […]-2 mRNA expression was decreased approximately 40%.
On the technique in general: An ELISA detects its analyte on a solid surface through an enzyme-linked reagent.

The subject of another test is LNCaP xenografts. Kind of test: LNCaP xenograft tumorigenicity in SCID mice. The format is in vivo. The method, then: In Vivo Studies in SCID Mice: Male SCID mice, 4-6 weeks of age, were purchased from the National Cancer Institute (Frederick, Md.). Animals were housed in a pathogen-free environment under controlled conditions of light and humidity and received food and water ad libitum. LNCaP cells were grown in complete medium and 800 μg/ml of G418 until 80% confluent. Cells were scraped into phosphate-buffered saline (PBS), collected by centrifugation, and suspended in Matrigel (10 mg/ml) (Collaborative Research, Waltham, Mass.) at 1×10^7 cells/ml. Each mouse received s.c. injections at one site on each flank with 100 μl of cell suspension. Tumors were measured three times a week with calipers, and tumor volumes were calculated by the formula 0.5236×r1^2×r2 (r1<r2). The animal protocols were approved by the Institutional Animal Care and Use Committee at the University of Maryland.
After sacrifice, tumors were excised and fixed in 10% buffered neutral formalin. Sections of formalin-fixed, paraffin-embedded tissues were cut to 5 μm. Slides were stained with an Ebp1 antibody (Upstate) diluted 1:50 using the standard avidin-biotin method (Vector Labs, Burlinghame, Calif.). Peroxidase activity was localized by the diaminobenzidine tetrachloride peroxidase reaction with Harris hematoxylin as a counterstain.
Ebp1 expression suppresses growth of prostate cancer xenografts: The effect of ectopic expression of ebp1 on the tumorigenicity of LNCaP cells was examined. Ebp1- and vector-transfected cells were injected subcutaneously into SCID mice, and tumor growth was monitored. Tumor growth was first noted in both groups at day 20. […] At the end of the study, tumors had developed at more than 85% of the sites injected with the vector control cells, while less than 40% of sites inoculated with ebp1 transfectants developed tumors. This difference was significant at p=0.04 by Fisher's exact test, two-sided. […] Average tumor volumes observed at the end of the study were 268±70 mm^3 as compared with 1214±168 mm^3 for the vector controls (p=0.0003). In addition, the growth rate was also slower for ebp1 transfectants at all time points measured (p=0.0001). […] Thus, cells that grew to form tumors had lost overexpression of the transgene.

B1: Ebp1: ErbB3 binding protein (SEQ ID NO: 2), tested by stable ectopic expression (ebp1 transfection) in LNCaP cells (protein)
chain: MSGEDEQQEQTIAEDLVVTKYKMGGDIANRVLRSLVEASSSGVSVLSLCEKGDAMIMEETGKIFKKEKEMKKGIAFPTSISVNNCVCHFSPLKSDQDYILKEGDLVKIDLGVHVDGFIANVAHTFVVDVAQGTQVTGRKADVIKAAHLCAEAALRLVKPGNQNTQVTEAWNKVAHSFNCTPIEGMLSHQLKQHVIDGEKTIIQNPTDQQKKDHEKAEFEVHEVYAVDVLVSSGEGKAKDAGQRTTIYKRDPSKQYGLKMKTSRAFFSEVERRFDAMPFTLRAFEDEKKARMGVVECAKHELLQPFNVLYEKEGEFVAQFKFTVLLMPNGPMRITSGPFEPDLYKSEMEVQDAELKALLQSSASRKTQKKKKKKASKTAENPTSGETLEENEAGD
modifications: Homo Sapien
On to B1, for which the AR protein decrease result in test [1] (Western blot, LNCaP ebp1 transfectants) is “more than five-fold”. The POV-1 protein decrease entry in test [1] (ebp1 transfectants) is “about two-fold”. The “growth inhibition by the withdrawal of androgens” value in the test on LNCaP cells is given as 60%. In test [2], the “secreted PSA protein downregulation” value is 10 fold. The tumor growth rate entry in the test on LNCaP xenografts (all time points measured, vs vector controls, p=0.0001) is “slower”. Also, the “inoculation sites with tumors” value with LNCaP xenografts (day 20, s.c. in SCID mice (vector controls 35%)) came out at 10%. Also, the “inoculation sites that developed tumors” value in the test on LNCaP xenografts (end of the study (vector control more than 85%), p=0.04) was “less than 40%”. Besides, in the test on LNCaP xenografts (end of the study (vector controls 1214±168 mm^3), p=0.0003), the average tumor volume is given as 268±70 mm^3.
